Measurements from patent US20260242735A1 (UNIVERSIT T BASEL, published 2026).

How the values were obtained:
Test in all cases: flow cytometry, alanine scan
[1] = biological target: human CD33 A328S (human, UniProt P20138 18-364)
Method: (§1) An alanine scan on human CD33 was performed to the determine the residues on CD33 that are involved in binding to the antibodies investigated. […] Briefly, a mutation library of CD33 was created by high-throughput, site-directed mutagenesis. Each residue was individually mutated to alanine, with alanine codons mutated to serine. The mutant library was arrayed in 384-well microplates and transiently transfected into HEK293-T. Following transfection, cells were incubated with the indicated antibodies (IgG or Fab) at concentrations pre-determined using an independent immunofluorescence titration curve on wild type CD33. […] Binding of each antibody to each mutant clone was determined in duplicates. For each point, background fluorescence was subtracted from the raw data, which were then normalized to antibody reactivity with wild type CD33.
(§2) Critical residues for antibody binding (outlined in dark grey) were residues whose mutations led to a binding of the test Abs of less than 20%. Additional secondary residues (outlined in light grey) were identified that led to a binding of the test Abs of between 20 and 40% as compared to the wild type CD33.

[2] = biological target: human CD33 K352A (human, UniProt P20138 18-364)
Method: as §1, §2

[3] = biological target: human CD33 C325A (human, UniProt P20138 18-364)
Method: as §1, §2

[4] = biological target: human CD33 T356A (human, UniProt P20138 18-364)
Method: as §1, §2

[5] = biological target: human CD33 E333A (human, UniProt P20138 18-364)
human CD33 E333A, sequence (P20138 18-364 E333A limits assumed): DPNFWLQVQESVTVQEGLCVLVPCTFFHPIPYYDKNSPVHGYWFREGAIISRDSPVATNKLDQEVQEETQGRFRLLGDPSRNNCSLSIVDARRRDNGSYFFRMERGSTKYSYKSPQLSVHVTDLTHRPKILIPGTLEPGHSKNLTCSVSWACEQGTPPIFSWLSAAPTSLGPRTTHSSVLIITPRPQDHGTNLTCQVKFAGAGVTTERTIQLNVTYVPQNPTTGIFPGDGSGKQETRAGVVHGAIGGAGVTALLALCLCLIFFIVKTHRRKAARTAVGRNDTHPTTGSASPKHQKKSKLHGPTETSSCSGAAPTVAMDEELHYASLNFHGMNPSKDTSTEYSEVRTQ
Method: as §1, §2

[6] = biological target: human CD33 T322A (human, UniProt P20138 18-364)
Method: as §1, §2

[7] = biological target: human CD33 S355A (human, UniProt P20138 18-364)
human CD33 S355A, sequence (P20138 18-364 S355A limits assumed): as the sequence (P20138 18-364 E333A limits assumed) above, with A316E, S338A counted along it
Method: as §1, §2

[8] = biological target: human CD33 Q364A (human, UniProt P20138 18-363)
Method: as §1, §2

[9] = biological target: human CD33 G318A (human, UniProt P20138 18-364)
human CD33 G318A, sequence (P20138 18-364 G318A limits assumed): as the sequence (P20138 18-364 E333A limits assumed) above, with G301A, A316E counted along it
Method: as §1, §2

[10] = biological target: human CD33 M334A (human, UniProt P20138 18-364)
Method: as §1, §2

[11] = biological target: human CD33 Y340A (human, UniProt P20138 18-364)
human CD33 Y340A, sequence (P20138 18-364 Y340A limits assumed): as the sequence (P20138 18-364 E333A limits assumed) above, with A316E, Y323A counted along it
Method: as §1, §2

[12] = biological target: human CD33 R362A (human, UniProt P20138 18-364)
Method: as §1, §2

[13] = biological target: human CD33 S326A (human, UniProt P20138 18-364)
Method: as §1, §2

[14] = biological target: human CD33 A341S (human, UniProt P20138 18-364)
Method: as §1, §2

[15] = biological target: human CD33 A329S (human, UniProt P20138 18-364)
Method: as §1, §2

[16] = biological target: human CD33 T354A (human, UniProt P20138 18-364)
Method: as §1, §2

[17] = biological target: human CD33 P319A (human, UniProt P20138 18-364)
Method: as §1, §2

[18] = biological target: human CD33 L343A (human, UniProt P20138 18-364)
human CD33 L343A, sequence (P20138 18-364 L343A limits assumed): as the sequence (P20138 18-364 E333A limits assumed) above, with A316E, L326A counted along it
Method: as §1, §2

[19] = biological target: human CD33 D353A (human, UniProt P20138 18-364)
human CD33 D353A, sequence (P20138 18-364 D353A limits assumed): as the sequence (P20138 18-364 E333A limits assumed) above, with A316E, D336A counted along it
Method: as §1, §2

[20] = biological target: human CD33 E321A (human, UniProt P20138 18-364)
Method: as §1, §2

[21] = biological target: human CD33 T320A (human, UniProt P20138 18-364)
Method: as §1, §2

[22] = biological target: human CD33 E336A (human, UniProt P20138 18-364)
human CD33 E336A, sequence (P20138 18-364 E336A limits assumed): as the sequence (P20138 18-364 E333A limits assumed) above, with A316E, E319A counted along it
Method: as §1, §2

[23] = biological target: human CD33 N344A (human, UniProt P20138 18-364)
Method: as §1, §2

[24] = biological target: human CD33 S342A (human, UniProt P20138 18-364)
Method: as §1, §2

[25] = biological target: human CD33 S359A (human, UniProt P20138 18-364)
Method: as §1, §2

[26] = biological target: human CD33 E360A (human, UniProt P20138 18-364)
Method: as §1, §2

[27] = biological target: human CD33 M348A (human, UniProt P20138 18-364)
human CD33 M348A, sequence (P20138 18-364 M348A limits assumed): as the sequence (P20138 18-364 E333A limits assumed) above, with A316E, M331A counted along it
Method: as §1, §2

[28] = biological target: human CD33 T363A (human, UniProt P20138 18-364)
Method: as §1, §2

[29] = biological target: human CD33 H346A (human, UniProt P20138 18-364)
Method: as §1, §2

[30] = biological target: human CD33 S323A (human, UniProt P20138 18-364)
human CD33 S323A, sequence (P20138 18-364 S323A limits assumed): as the sequence (P20138 18-364 E333A limits assumed) above, with S306A, A316E counted along it
Method: as §1, §2

[31] = biological target: human CD33 T331A (human, UniProt P20138 18-364)
human CD33 T331A, sequence (P20138 18-364 T331A limits assumed): as the sequence (P20138 18-364 E333A limits assumed) above, with T314A, A316E counted along it
Method: as §1, §2

[32] = biological target: human CD33 V361A (human, UniProt P20138 18-364)
Method: as §1, §2

[33] = biological target: human CD33 P350A (human, UniProt P20138 18-364)
Method: as §1, §2

[34] = biological target: human CD33 H339A (human, UniProt P20138 18-364)
Method: as §1, §2

[35] = biological target: human CD33 E337A (human, UniProt P20138 18-364)
Method: as §1, §2

[36] = biological target: human CD33 S324A (human, UniProt P20138 18-364)
human CD33 S324A, sequence (P20138 18-364 S324A limits assumed): as the sequence (P20138 18-364 E333A limits assumed) above, with S307A, A316E counted along it
Method: as §1, §2

[37] = biological target: human CD33 G327A (human, UniProt P20138 18-364)
Method: as §1, §2

[38] = biological target: human CD33 S351A (human, UniProt P20138 18-364)
Method: as §1, §2

[39] = biological target: human CD33 E357A (human, UniProt P20138 18-364)
Method: as §1, §2

[40] = biological target: human CD33 Y358A (human, UniProt P20138 18-364)
Method: as §1, §2

[41] = biological target: human CD33 N349A (human, UniProt P20138 18-364)
Method: as §1, §2

[42] = biological target: human CD33 V332A (human, UniProt P20138 18-364)
human CD33 V332A, sequence (P20138 18-364 V332A limits assumed): as the sequence (P20138 18-364 E333A limits assumed) above, with V315A, A316E counted along it
Method: as §1, §2

[43] = biological target: human CD33 L338A (human, UniProt P20138 18-364)
Method: as §1, §2

[44] = biological target: human CD33 P330A (human, UniProt P20138 18-364)
human CD33 P330A, sequence (P20138 18-364 P330A limits assumed): as the sequence (P20138 18-364 E333A limits assumed) above, with P313A, A316E counted along it
Method: as §1, §2

[45] = biological target: human CD33 F345A (human, UniProt P20138 18-364)
Method: as §1, §2

[46] = biological target: human CD33 D335A (human, UniProt P20138 18-364)
Method: as §1, §2

[47] = biological target: human CD33 G347A (human, UniProt P20138 18-364)
Method: as §1, §2

human CD33 A328S, sequence (P20138 18-364 A328S limits assumed): as the sequence (P20138 18-364 E333A limits assumed) above, with A311S, A316E counted along it

B1: Refmab #3 (antibody, V domains shown)
VH: QVQLVQSGAEVKKPGSSVKVSCKASGYTFTDYNMHWVRQAPGQGLEWIGYIYPYNGGTGYNQKFKSKATITADESTNTAYMELSSLRSEDTAVYYCARGRPAMDYWGQGTLVTVSS
VL: DIQMTQSPSSLSASVGDRVTITCRASESVDNYGISFMNWFQQKPGKAPKLLIYAASNQGSGVPSRFSGSGSGTDFTLTISSLQPDDFATYYCQQSKEVPWTFGQGTKVEIK
notes: The alanine scan used IgG or Fab
With B1 as the binder, how does the “Mean % WT Binding” value [1] read?
Its value is 127 % of WT.

What about the “Mean % WT Binding” value [2] of the same binder?
The value was 96.3 % of WT.

What about the “Mean % WT Binding” value [3] of the same binder?
The value was 91.2 % of WT.

And the “Mean % WT Binding” value [4]?
Its value is 108 % of WT.

What about the “Mean % WT Binding” value [5] of the same binder?
The value was 104 % of WT.

What about the “Mean % WT Binding” value [6] of the same binder?
Its value is 83.5 % of WT.

And the “Mean % WT Binding” value [7]?
Its value is 85.6 % of WT.

What about the “Mean % WT Binding” value [8] of the same binder?
Its value is 97.8 % of WT.

What about the “Mean % WT Binding” value [9] of the same binder?
The value was 117 % of WT.

What about the “Mean % WT Binding” value [10] of the same binder?
The value was 81.2 % of WT.

What about the “Mean % WT Binding” value [11] of the same binder?
Its value is 88 % of WT.

And the “Mean % WT Binding” value [12]?
The value was 114 % of WT.

What about the “Mean % WT Binding” value [13] of the same binder?
The value was 129 % of WT.

What about the “Mean % WT Binding” value [14] of the same binder?
Its value is 138 % of WT.

And the “Mean % WT Binding” value [15]?
Its value is 133 % of WT.

And the “Mean % WT Binding” value [16]?
The value was 89.1 % of WT.

What about the “Mean % WT Binding” value [17] of the same binder?
Its value is 76.4 % of WT.

What about the “Mean % WT Binding” value [18] of the same binder?
Its value is 77.4 % of WT.

What about the “Mean % WT Binding” value [19] of the same binder?
Its value is 98.3 % of WT.

And the “Mean % WT Binding” value [20]?
The value was 88.4 % of WT.

And the “Mean % WT Binding” value [21]?
The value was 82.4 % of WT.

And the “Mean % WT Binding” value [22]?
The value was 103 % of WT.

And the “Mean % WT Binding” value [23]?
The value was 118 % of WT.

And the “Mean % WT Binding” value [24]?
Its value is 121 % of WT.

And the “Mean % WT Binding” value [25]?
The value was 135 % of WT.

What about the “Mean % WT Binding” value [26] of the same binder?
The value was 123 % of WT.

And the “Mean % WT Binding” value [27]?
The value was 133 % of WT.

What about the “Mean % WT Binding” value [28] of the same binder?
The value was 91.5 % of WT.

And the “Mean % WT Binding” value [29]?
Its value is 133 % of WT.

And the “Mean % WT Binding” value [30]?
Its value is 115 % of WT.

What about the “Mean % WT Binding” value [31] of the same binder?
Its value is 147 % of WT.

And the “Mean % WT Binding” value [32]?
Its value is 97.6 % of WT.

What about the “Mean % WT Binding” value [33] of the same binder?
The value was 90.7 % of WT.

And the “Mean % WT Binding” value [34]?
The value was 83.5 % of WT.

What about the “Mean % WT Binding” value [35] of the same binder?
Its value is 114 % of WT.

What about the “Mean % WT Binding” value [36] of the same binder?
The value was 109 % of WT.

And the “Mean % WT Binding” value [37]?
Its value is 132 % of WT.

What about the “Mean % WT Binding” value [38] of the same binder?
Its value is 91.8 % of WT.

And the “Mean % WT Binding” value [39]?
Its value is 120 % of WT.

And the “Mean % WT Binding” value [40]?
The value was 140 % of WT.

And the “Mean % WT Binding” value [41]?
Its value is 121 % of WT.

What about the “Mean % WT Binding” value [42] of the same binder?
Its value is 89.8 % of WT.

What about the “Mean % WT Binding” value [43] of the same binder?
The value was 89.3 % of WT.

What about the “Mean % WT Binding” value [44] of the same binder?
The value was 146 % of WT.

And the “Mean % WT Binding” value [45]?
The value was 84 % of WT.

What about the “Mean % WT Binding” value [46] of the same binder?
The value was 87.4 % of WT.

What about the “Mean % WT Binding” value [47] of the same binder?
Its value is 118 % of WT.
